Experiment in all cases: cell_activity
The test system of one data set is SBS34077 ZFN (synthetic). The note with it: pair with 33115, D17 cells.
Another data set relates to SBS33115 ZFN (synthetic). The note with it: pair with 34077, D17 cells.
The subject of a further data set is SBS35393 ZFN (synthetic). The conditions noted are these: pair with 35361.
For the next data set, the system named is SBS30724 ZFN (synthetic). The note with it: pair with 30725, AAV in mouse liver, Cel-I.
Another data set deals with SBS30872 ZFN (synthetic). The note with it: pair with 30873, AAV8 in mouse liver, Cel-I; up to 17% over both pairs.
The subject of a further data set is SBS36808 ZFN (synthetic). The conditions noted are these: pair with 35396, RF/6A.
The test system of the next data set is SBS36813 ZFN (synthetic). The conditions noted are these: pair with 35396, RF/6A.
Another data set relates to SBS36819 ZFN (synthetic). The note with it: pair with 35396, RF/6A.
The subject of a further data set is SBS36806 ZFN (synthetic). The note with it: pair with 35396, RF/6A.
In the next data set the test system is SBS36820 ZFN (synthetic). The note with it: pair with 35396, RF/6A.
A further data set deals with SBS30873 ZFN (synthetic). The note with it: pair with 30872, AAV8 in mouse liver, Cel-I; up to 17% over both pairs.
The test system of the next data set is SBS30725 ZFN (synthetic). The note with it: pair with 30724, AAV in mouse liver, Cel-I.
A further data set concerns SBS35370 ZFN (synthetic). The conditions noted are these: pair with 35396.

“AAGTCATGTGGAGAGAAACACAAAGAGT (double strand) [34077 site]” registered an activity with SBS34077 ZFN (synthetic) of 30 % indels.
“AGTATTCGTTTGCTCCAAAATATTTGCC (double strand) [33115 site]” displayed an activity in the data set with SBS33115 ZFN (synthetic) of 30 % indels.
The sequence “CCTATCCATTGCACTATGCTTTATTTAA (double strand) [human locus 2 left site (conserved in rhesus)]” returned an activity (% mutated targets) in the data set on SBS35393 ZFN (synthetic) of 18.
In turn, “CTGAAGGTGGCAATGGTTCCTCTCTGCT (double strand) [30724 site]” gave an activity in the data set on SBS30724 ZFN (synthetic) below 21 % indels.
As to “CTTGGCTGTGTAGGAGGGGAGTAGCAGT (double strand) [30872 site]”, the activity in the data set on SBS30872 ZFN (synthetic) was below 17 % indels.
Turning to “TTAGGGACAGTTATGAATTCAATCTTCA (double strand) [rhesus partner site]”, the activity was found to be 26 % indels with SBS36808 ZFN (synthetic); 21 % indels in the data set with SBS36813 ZFN (synthetic); 30 % indels in the data set with SBS36819 ZFN (synthetic); 20.5 % indels in the data set with SBS36806 ZFN (synthetic); 23 % indels with SBS36820 ZFN (synthetic).
In turn, “TTCCTAAGTTGGCAGTGGCATGCTTAAT (double strand) [30873 site]” had an activity with SBS30873 ZFN (synthetic) below 17 % indels.
Take “TTTCCTGTAACGATCGGGAACTGGCATC (double strand) [30725 site]”: the activity in the data set with SBS30725 ZFN (synthetic) was below 21 % indels.
Regarding “TTTGGGATAGTTATGAATTCAATCTTCA (double strand) [human locus 2 partner site]”, the activity (% mutated targets) in the data set with SBS35370 ZFN (synthetic) is 22.
